Test results: publication doi:10.1101/2024.03.24.586400 (bioRxiv, 2024)
No end group written: not given here.

Key:
Experiment in all cases: grating-coupled interferometry
[1] = molecular target: SARNP UCM-1 and UCM-4 peptides
[2] = molecular target: SARNP UCM-1 peptide (GCI) (human)
[3] = molecular target: TREX-2^M, minimal recombinant TREX-2 complex (GANP Sac3 domain residues 582-1004, PCID2, SEM1) (human) (UniProt O60318)
[4] = molecular target: UAP56 (DDX39B), recombinant wild type (human, UniProt Q13838 1-428)
Sequence of UAP56 (DDX39B), recombinant wild type (human, UniProt Q13838 1-428) (Q13838 whole entry): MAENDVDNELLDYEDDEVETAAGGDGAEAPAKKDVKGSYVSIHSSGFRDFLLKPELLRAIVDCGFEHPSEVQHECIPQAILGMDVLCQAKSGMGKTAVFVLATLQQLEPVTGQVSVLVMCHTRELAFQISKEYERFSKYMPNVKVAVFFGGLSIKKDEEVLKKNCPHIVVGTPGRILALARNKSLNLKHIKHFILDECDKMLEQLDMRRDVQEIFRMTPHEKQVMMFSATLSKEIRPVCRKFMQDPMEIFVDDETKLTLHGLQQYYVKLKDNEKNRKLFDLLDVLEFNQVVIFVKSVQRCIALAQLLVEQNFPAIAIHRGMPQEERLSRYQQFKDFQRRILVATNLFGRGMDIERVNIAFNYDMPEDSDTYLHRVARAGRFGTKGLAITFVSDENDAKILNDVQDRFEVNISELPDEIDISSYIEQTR

Sequence of UAP56 (DDX39B), recombinant wild type (from UniProt Q13838 1-428) (enzyme) (Q13838 whole entry): as above
Sequence of TREX-2^M, minimal recombinant TREX-2 complex (GANP Sac3 domain residues 582-1004, PCID2, SEM1) (human) (O60318 582-1004, chain 1 of 3): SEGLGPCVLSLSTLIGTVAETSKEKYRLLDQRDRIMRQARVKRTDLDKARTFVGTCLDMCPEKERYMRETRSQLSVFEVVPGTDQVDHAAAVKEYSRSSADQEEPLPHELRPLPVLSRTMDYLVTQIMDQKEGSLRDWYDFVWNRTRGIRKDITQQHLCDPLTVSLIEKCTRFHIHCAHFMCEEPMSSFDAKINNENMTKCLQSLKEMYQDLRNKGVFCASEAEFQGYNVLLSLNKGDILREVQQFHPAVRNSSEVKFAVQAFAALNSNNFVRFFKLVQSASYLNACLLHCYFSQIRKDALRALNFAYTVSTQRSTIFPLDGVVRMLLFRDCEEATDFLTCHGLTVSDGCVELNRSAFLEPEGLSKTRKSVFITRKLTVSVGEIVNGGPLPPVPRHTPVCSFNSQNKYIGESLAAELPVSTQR
Sequence of TREX-2^M, minimal recombinant TREX-2 complex (GANP Sac3 domain residues 582-1004, PCID2, SEM1) (human) (Q5JVF3 whole entry, chain 2 of 3, further chain, the tested form may be a part): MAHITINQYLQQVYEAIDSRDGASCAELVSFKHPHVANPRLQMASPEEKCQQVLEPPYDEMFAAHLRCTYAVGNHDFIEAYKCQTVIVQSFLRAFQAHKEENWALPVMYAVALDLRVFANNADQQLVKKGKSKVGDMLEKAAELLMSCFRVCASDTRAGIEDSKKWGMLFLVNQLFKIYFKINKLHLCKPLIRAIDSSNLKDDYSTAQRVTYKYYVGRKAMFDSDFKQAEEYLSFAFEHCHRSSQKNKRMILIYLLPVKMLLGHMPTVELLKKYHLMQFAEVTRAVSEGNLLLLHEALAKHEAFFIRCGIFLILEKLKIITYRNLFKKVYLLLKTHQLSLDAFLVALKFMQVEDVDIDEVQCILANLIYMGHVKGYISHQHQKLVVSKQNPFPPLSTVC
Sequence of TREX-2^M, minimal recombinant TREX-2 complex (GANP Sac3 domain residues 582-1004, PCID2, SEM1) (human) (P60896 whole entry, chain 3 of 3, further chain, the tested form may be a part): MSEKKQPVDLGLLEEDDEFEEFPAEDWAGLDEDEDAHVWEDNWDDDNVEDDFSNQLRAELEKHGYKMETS

## UAP56 (DDX39B), recombinant wild type (from UniProt Q13838 1-428) (enzyme)
[1]
  Kd: 10 to 20 µM
[2]
  Kd: 12 µM

## UAP56 lacking residues 1-28 (from UniProt Q13838 28-428) (domain or fragment)
[3]
  Kd: 0.17 µM

## MDMSLDDII (also: biotin, position not given here) [ALYREF N-UBM peptide (GCI)]
[4]
  Kd: 24 µM
